Laboratory results from paper PMC10309188.

Legend:
Assay in all cases: SPR
[1] = target: MR1 E76Q E149Q refolded with 5-FSA, biotinylated (SPR) (UniProt Q95460)
[2] = target: MR1 E76Q E149Q refolded with 6-FP, biotinylated (SPR) (UniProt Q95460)
[3] = target: wildtype MR1 refolded with 5-F-SA, biotinylated (SPR) (UniProt Q95460)
[4] = target: wildtype MR1 refolded with 6-FP, biotinylated (SPR) (UniProt Q95460)

Kd [1]: > 150 µM
Kd [2]: > 150 µM
Kd [3]: > 150 µM
Kd [4]: > 150 µM
Substance: AF-7 TCR
